Reference: publication PMC9438803 (Life Science Alliance, 2021)
One block for each binder: values may come before it.

Experiments:
[1] = target: RPA49/RPA34 heterodimer full length (Homo sapiens, UniProt Q9GZS1;O15446 1-419;1-510); assay: EMSA; EMSA: 100 fmol DNA, up to 50x protein, RT 30 min; buffer 1: 10 mM Tris pH 7.5, 50 mM NaCl, 1 mM MgCl2, 4% glycerol, 0.5 mM EDTA, 0.5 mM DTT; or buffer 2: 20 mM; conditions: protein: recombinant; tags: N-term 6xHis on RPA49; RPA34 untagged; copies: 1;1; label: 5'-Cy5 on strand 1; blunt
[2] = target: dock II minimal (Homo sapiens, UniProt O95602 1081-1146); assay: EMSA; up to 50x protein excess; no major DNA binding; EMSA: 100 fmol DNA, up to 50x protein, RT 30 min; buffer 1: 10 mM Tris pH 7.5, 50 mM NaCl, 1 mM MgCl2, 4% glycerol, 0.5 mM EDTA, 0.5 mM DTT; or buffer 2: 20 mM; conditions: protein: recombinant; tags: C-term His-MBP; label: 5'-Cy5 on strand 1; blunt
[3] = target: T1, recombinant human Topoisomerase 2a lacking the unstructured C-terminal domain (1-1,217) (human, UniProt P11388 1-1217); assay: mass spectrometry of bands cut from the native PAGE; unshifted and shifted Top2a bands of the blue-native gel analysed by mass spectrometry; conditions: both partners purified
T1 construct: human Topoisomerase 2a residues 1-1,217; A legend on the cited structures calls Top2a a homodimer; also called Top2a ΔC; Top2aΔCTD; source: recombinant, purified
T1 sequence (P11388 1-1217): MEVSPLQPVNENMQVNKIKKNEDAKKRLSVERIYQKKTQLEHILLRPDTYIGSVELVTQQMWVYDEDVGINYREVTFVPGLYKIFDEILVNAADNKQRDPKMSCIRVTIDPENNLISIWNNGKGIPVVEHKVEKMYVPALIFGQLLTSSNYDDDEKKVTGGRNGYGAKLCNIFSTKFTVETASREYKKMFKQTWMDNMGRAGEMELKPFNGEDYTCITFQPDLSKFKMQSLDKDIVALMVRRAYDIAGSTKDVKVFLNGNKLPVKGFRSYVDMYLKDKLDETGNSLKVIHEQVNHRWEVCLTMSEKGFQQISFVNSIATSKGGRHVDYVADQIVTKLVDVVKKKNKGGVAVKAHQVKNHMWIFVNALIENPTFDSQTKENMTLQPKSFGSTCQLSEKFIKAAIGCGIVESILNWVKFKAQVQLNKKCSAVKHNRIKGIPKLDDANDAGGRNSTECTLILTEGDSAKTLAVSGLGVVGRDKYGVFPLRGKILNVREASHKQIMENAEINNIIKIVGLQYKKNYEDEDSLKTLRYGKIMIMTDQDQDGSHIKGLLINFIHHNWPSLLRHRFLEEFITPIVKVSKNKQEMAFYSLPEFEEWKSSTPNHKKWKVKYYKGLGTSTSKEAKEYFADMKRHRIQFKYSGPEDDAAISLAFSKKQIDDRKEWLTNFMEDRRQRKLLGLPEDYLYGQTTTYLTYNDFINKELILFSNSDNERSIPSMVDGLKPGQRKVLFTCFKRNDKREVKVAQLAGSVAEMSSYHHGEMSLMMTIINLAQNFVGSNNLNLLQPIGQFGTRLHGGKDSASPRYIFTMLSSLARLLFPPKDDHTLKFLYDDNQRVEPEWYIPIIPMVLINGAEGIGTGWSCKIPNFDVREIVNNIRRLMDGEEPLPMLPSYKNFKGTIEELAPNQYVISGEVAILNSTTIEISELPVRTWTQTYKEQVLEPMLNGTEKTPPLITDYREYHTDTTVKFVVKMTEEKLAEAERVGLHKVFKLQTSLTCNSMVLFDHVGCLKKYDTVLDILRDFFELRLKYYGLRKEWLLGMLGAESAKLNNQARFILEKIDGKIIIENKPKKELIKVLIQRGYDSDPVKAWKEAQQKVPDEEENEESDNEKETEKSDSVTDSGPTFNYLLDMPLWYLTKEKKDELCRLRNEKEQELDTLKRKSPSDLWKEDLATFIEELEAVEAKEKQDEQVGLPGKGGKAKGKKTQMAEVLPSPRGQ

RPA49/RPA34 heterodimer full length, sequence (Q9GZS1 whole entry, chain 1 of 2): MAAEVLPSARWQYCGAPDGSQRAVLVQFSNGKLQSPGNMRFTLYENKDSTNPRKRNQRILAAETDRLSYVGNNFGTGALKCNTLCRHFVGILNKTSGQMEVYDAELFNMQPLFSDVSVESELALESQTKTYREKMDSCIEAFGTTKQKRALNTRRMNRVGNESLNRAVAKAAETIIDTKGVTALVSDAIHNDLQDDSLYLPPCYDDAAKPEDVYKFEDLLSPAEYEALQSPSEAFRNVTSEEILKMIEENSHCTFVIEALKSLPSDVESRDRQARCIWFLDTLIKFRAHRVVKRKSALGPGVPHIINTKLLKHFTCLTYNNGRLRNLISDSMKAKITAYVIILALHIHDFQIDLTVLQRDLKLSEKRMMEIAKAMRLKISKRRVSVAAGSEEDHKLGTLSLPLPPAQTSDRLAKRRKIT
RPA49/RPA34 heterodimer full length, sequence (O15446 whole entry, chain 2 of 2): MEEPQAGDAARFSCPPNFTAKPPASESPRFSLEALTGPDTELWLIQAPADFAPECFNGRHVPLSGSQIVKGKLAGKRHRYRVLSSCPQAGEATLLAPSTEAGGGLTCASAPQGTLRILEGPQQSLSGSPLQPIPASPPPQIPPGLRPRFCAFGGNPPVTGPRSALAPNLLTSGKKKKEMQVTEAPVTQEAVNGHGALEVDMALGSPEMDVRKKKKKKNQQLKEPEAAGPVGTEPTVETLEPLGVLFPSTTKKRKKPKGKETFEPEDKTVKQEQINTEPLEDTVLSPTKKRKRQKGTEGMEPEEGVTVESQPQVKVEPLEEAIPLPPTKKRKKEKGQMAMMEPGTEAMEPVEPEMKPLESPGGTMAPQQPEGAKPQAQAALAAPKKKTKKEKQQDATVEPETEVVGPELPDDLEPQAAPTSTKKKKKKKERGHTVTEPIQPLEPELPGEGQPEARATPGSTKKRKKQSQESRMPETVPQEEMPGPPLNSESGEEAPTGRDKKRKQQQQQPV

B1: EMSA-DNA 40 bp (dsDNA)
DNA 1: CTGGAACAACACTCAACCCTATCTCGGTCTATTCTTTTGA
DNA 2: TCAAAAGAATAGACCGAGATAGGGTTGAGTGTTGTTCCAG
binding result [1]: binds | binding result [2]: no binding

binding result [3]: binds
B2: human dock II domain, full-length fragment (RPA1 1060-1155) with C-terminal His-MBP-tag (domain or fragment, UniProt O95602 1060-1155, looked up)
chain: ADPKKALHHFRAIKKWQSKHPNTLLRRGAFLSYSQKIQEAVKALKLESENRNGRSPGTQEMLRMWYELDEESRRKYQKKAAACPDPSLSVWRPDIY
notes: human RPA1 residues 1060-1155, the dock II domain (HMG box-like foot insertion); The results call it MBP-dock II; the methods say that the His-MBP tag is C-terminal; also called full-length MBP-dock II; dock II-MBP fusion; source: E. coli BL21 (DE3) RIL, purified (Ni-NTA, Superdex 75); not shown: His, C-terminal, kept; MBP, C-terminal, kept
